Each block holds one binder with its values, some of them ahead of it.
Tests used:
[1] = molecular target: 4H_GCN4; assay: two-hybrid library CCmax;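 note: natural log of median RNA to DNA barcode read ratio; higher means stronger binding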
[2] = molecular target: T1, P2-AA-12HAA-R; assay: two-hybrid library CCmax;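 note: natural log of median RNA to DNA barcode read ratio; higher means stronger binding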
T1 chain: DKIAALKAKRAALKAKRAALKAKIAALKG

[3] = molecular target: T2, 4H895-AA; assay: two-hybrid library CCmax; conditions: mean of both orientations;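 note: natural log of median RNA to DNA barcode read ratio; higher means stronger binding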
T2 chain: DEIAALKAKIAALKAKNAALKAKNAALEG

[4] = molecular target: T3, 4H_BCR; assay: two-hybrid library CCmax; conditions: mean of both orientations;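 note: natural log of median RNA to DNA barcode read ratio; higher means stronger binding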
T3 chain: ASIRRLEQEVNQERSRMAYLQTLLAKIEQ

[5] = molecular target: T4, 4H3651-AA; assay: two-hybrid library CCmax; conditions: mean of both orientations;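 note: natural log of median RNA to DNA barcode read ratio; higher means stronger binding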
T4 chain: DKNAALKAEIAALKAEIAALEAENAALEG

[6] = molecular target: T5, 4H486-AA; assay: two-hybrid library CCmax; conditions: mean of both orientations;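 note: natural log of median RNA to DNA barcode read ratio; higher means stronger binding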
T5 chain: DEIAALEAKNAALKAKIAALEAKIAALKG

[7] = molecular target: T6, 4H3705-AA; assay: two-hybrid library CCmax; conditions: mean of both orientations
T6 chain: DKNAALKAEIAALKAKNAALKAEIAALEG

[8] = molecular target: T7, 4H465-AA; assay: two-hybrid library CCmax; conditions: mean of both orientations
T7 chain: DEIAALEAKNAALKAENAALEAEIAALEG

[9] = molecular target: T8, 4H355-AA; assay: two-hybrid library CCmax
T8 chain: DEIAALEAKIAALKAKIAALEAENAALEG

[10] = molecular target: T9, 4H_APH; assay: two-hybrid library CCmax
T9 chain: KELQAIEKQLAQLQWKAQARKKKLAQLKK

[11] = molecular target: GCN2_T; assay: two-hybrid library CCmax
[12] = molecular target: T10, 4H58-AA; assay: two-hybrid library CCmax; conditions: mean of both orientations
T10 chain: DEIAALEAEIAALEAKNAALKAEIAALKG

[13] = molecular target: T11, 4H3782-AA; assay: two-hybrid library CCmax; conditions: mean of both orientations
T11 chain: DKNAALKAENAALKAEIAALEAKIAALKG

[14] = molecular target: T12, 4H535-AA; assay: two-hybrid library CCmax
T12 chain: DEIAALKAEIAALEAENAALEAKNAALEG

[15] = molecular target: T13, 4H730-bN; assay: two-hybrid library CCNG1
T13 chain: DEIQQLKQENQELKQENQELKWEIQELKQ

[16] = molecular target: T14, 4H3381-bN; assay: two-hybrid library CCNG1
T14 chain: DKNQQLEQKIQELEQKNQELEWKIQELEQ

[17] = molecular target: T15, 4H3364-bN; assay: two-hybrid library CCNG1
T15 chain: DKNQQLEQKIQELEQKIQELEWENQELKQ

[18] = molecular target: T16, 4H796-bN; assay: two-hybrid library CCNG1
T16 chain: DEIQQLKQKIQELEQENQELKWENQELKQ

[19] = molecular target: T17, 4H2931-bN; assay: two-hybrid library CCNG1
T17 chain: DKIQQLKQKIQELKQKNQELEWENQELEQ

[20] = molecular target: T18, 4H3041-bN; assay: two-hybrid library CCNG1
T18 chain: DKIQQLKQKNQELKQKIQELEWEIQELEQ

[21] = molecular target: T19, 4H932-bN; assay: two-hybrid library CCNG1
T19 chain: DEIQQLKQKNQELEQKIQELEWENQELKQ

[22] = molecular target: T20, 4H3297-bN; assay: two-hybrid library CCNG1
T20 chain: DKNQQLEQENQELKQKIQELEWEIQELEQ

[23] = molecular target: T21, 4H56-bN; assay: two-hybrid library CCNG1
T21 chain: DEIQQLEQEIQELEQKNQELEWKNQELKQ

[24] = molecular target: T22, 4H2760-bN; assay: two-hybrid library CCNG1
T22 chain: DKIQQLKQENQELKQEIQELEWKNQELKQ

[25] = molecular target: T23, 4H349-bN; assay: two-hybrid library CCNG1
T23 chain: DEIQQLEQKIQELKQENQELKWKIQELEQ

[26] = molecular target: T24, 4H2859-bN; assay: two-hybrid library CCNG1
T24 chain: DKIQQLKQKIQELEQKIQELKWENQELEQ

[27] = molecular target: T25, 4H949-bN; assay: two-hybrid library CCNG1
T25 chain: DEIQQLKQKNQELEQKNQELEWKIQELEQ

[28] = molecular target: T26, P9bH1; assay: two-hybrid library CCNG1
T26 chain: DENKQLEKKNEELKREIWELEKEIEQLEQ

4H_GCN4, sequence (chain, as listed by the source): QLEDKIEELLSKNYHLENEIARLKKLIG

interaction score [1]: -1.7
interaction score [2]: -2.32
interaction score [3]: -0.0681
interaction score [4]: -1.56
interaction score [5]: 0.086
interaction score [6]: -0.342
interaction score [7]: -1.7
interaction score [8]: -1.96
interaction score [9]: 0.592
interaction score [10]: -0.88
interaction score [11]: -2.04
interaction score [12]: 1.08
interaction score [13]: 0.393
interaction score [14]: -0.775
Binder: DEIAALEAKIAALKAKIAALEAENAALEG [4H355-AA]

interaction score [15]: -0.45
interaction score [16]: 0.638
interaction score [17]: -0.234
interaction score [18]: 0.11
interaction score [19]: -0.107
interaction score [20]: -0.517
interaction score [21]: -1.77
interaction score [22]: -1.61
interaction score [23]: -0.482
interaction score [24]: -0.578
interaction score [25]: -1.63
interaction score [26]: 1.03
interaction score [27]: 0.472
Binder: DKIQQLKQENQELKQEIQELEWKNQELKQ [4H2760-bN]

interaction score [28]: -0.482
Binder: DENKQLEKKNEELKREIWELEKEIEQLEQ [P9bH1]
